The values that follow come from patent publication US7078514 (dated 2006).

The assay deals with T1, recombinant chicken GHRH receptor (chicken).
T1 construct: Full-length cloned receptor; also called cGHRH receptor; cloned chicken GHRH receptor
T1 chain: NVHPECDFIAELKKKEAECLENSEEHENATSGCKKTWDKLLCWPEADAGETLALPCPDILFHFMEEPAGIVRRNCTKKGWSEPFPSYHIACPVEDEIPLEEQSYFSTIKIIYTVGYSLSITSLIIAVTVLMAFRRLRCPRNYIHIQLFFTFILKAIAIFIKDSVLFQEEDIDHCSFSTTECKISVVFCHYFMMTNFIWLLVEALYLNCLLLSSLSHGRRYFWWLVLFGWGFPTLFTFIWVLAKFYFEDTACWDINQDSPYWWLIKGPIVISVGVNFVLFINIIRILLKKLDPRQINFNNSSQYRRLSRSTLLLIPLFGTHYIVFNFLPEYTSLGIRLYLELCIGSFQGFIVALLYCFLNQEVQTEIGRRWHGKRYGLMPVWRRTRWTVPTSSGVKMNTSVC
The experiment in a line: competition with labeled hGHRH at recombinant chicken GHRH receptor.

No end group written: not given here.

B1: chicken GHRH polypeptide (asparagine^21), previously reported chicken GHRH (ligand)
peptide: HADGIFSKAYRKLLGQLSARNYLHSLMAKRVGGASSGLGDEAEPLS
modifications: not fully specified
notes: also called cGHRH(Asp^21); published polypeptide
For B1, the binding result is “no binding”.
